Measurements published in patent US20080267985A1.

Legend:
[1] = target: IgE antibodies from sera of grass pollen allergy sufferers (human); experiment: cell-based or functional assay
[2] = target: IgE antibodies from sera of grass pollen allergy sufferers (human); experiment: EAST inhibition test, four individual sera, plate-bound nPhl p 1, inhibitor up to 5 µg/ml

B1: Phl p 1 NoCys Δ213-220 (histidine fusion protein) (protein, not shown: small tags and cut ends)
chain: IPKVPPGPNITATYGDKWLDAKSTWYGKPTAAGPKDNGGASGYKDVDKPPFSGMTGSGNTPIFKSGRGSGSSFEIKSTKPEASSGEPVVVHITDDNEEPIAAYHFDLSGIAFGSMAKKGDEQKLRSAGEVEIQFRRVKSKYPEGTKVTFHVEKGSNPNYLALLVKFVAGDGDVVAVDIKEKGKDKWIALKESWGAIWRIDTPEVLKGPFTVRGEAKDVIPEGWKADTAYESK
allergenic efficacy from A50 values, basophil activation test (CD203c), against reference nPhl p 1 [1]: 100 to 1000 fold

B2: Phl p 1 NoCys Δ1-6, 115-119, 213-220 (histidine fusion protein) (protein, not shown: small tags and cut ends)
chain: GPNITATYGDKWLDAKSTWYGKPTAAGPKDNGGASGYKDVDKPPFSGMTGSGNTPIFKSGRGSGSSFEIKSTKPEASSGEPVVVHITDDNEEPIAAYHFDLSGIAFGSDEQKLRSAGEVEIQFRRVKSKYPEGTKVTFHVEKGSNPNYLALLVKFVAGDGDVVAVDIKEKGKDKWIALKESWGAIWRIDTPEVLKGPFTVRGEAKDVIPEGWKADTAYESK
allergenic efficacy from A50 values, basophil activation test (CD203c), against reference nPhl p 1 [1]: > 1000 fold

B3: Phl p 1 NoCys (histidine fusion protein) (protein, not shown: small tags and cut ends)
chain: IPKVPPGPNITATYGDKWLDAKSTWYGKPTAAGPKDNGGASGYKDVDKPPFSGMTGSGNTPIFKSGRGSGSSFEIKSTKPEASSGEPVVVHITDDNEEPIAAYHFDLSGIAFGSMAKKGDEQKLRSAGEVEIQFRRVKSKYPEGTKVTFHVEKGSNPNYLALLVKFVAGDGDVVAVDIKEKGKDKWIALKESWGAIWRIDTPEVLKGPFTVRYTTEGGTKGEAKDVIPEGWKADTAYESK
percent of the maximum inhibitory action of nPhl p 1 [2]: 20 to 50%
